B1: CD33/CD3 tandem diabody 17 (bispecific antibody)
chain: DIQMTQSPSSLSASVGDRVTITCRSSTGAVTTSNYANWVQQKPGKAPKALIGGTNKRAPGVPSRFSGSLIGDKATLTISSLQPEDFATYYCALWYSNLWVFGQGTKVEIKGGSGGSQVQLVQSGAEVKKPGESLKISCKGSGYSFTSYWIGWVRQMPGKGLEWMGIIYPGDSDTRYSPSFQGQVTISADKSISTAYLQWSSLKASDTAMYYCARHKRGSDAFDIWGQGTTVTVSSGGSGQSVLTQPPSVSGAPGQRVTISCTGSSSNIGAGYDVHWYQQLPGTAPKLLIYGNSNRPSGVPDRFSGSKSGTSASLAITGLQAEDEADYYCQSYDSSLSDVVFGGGTKLTVLGGSGGSEVQLVESGGGLVQPGGSLRLSCAASGFTFSTYAMNWVRQAPGKGLEWVGRIRSKYNNYATYYADSVKDRFTISRDDSKNSLYLQMNSLKTEDTAVYYCARHGNFGNSYVSYFAYWGQGTLVTVSSAAAGSHHHHHH
B2: CD33/CD3 tandem diabody 13 (bispecific antibody)
chain: DIQMTQSPSSLSASVGDRVTITCRSSTGAVTTSNYANWVQQKPGKAPKGLIGGTNKRAPGVPSRFSGSLIGTDFTLTISSLQPEDFATYYCALWYSNLWVFGQGTKVEIKGGSGGSQVQLVQSGAEVKKPGASVKVSCKASGYTFTSYDINWVRQAPGQGLEWMGWMNPNSGNTGFAQKFQGRVTMTRDTSTSTVYMELSSLRSEDTAVYYCARDRAVTDYYYGMDVWGQGTLVTVSSGGSGQSVLTQPPSASGTPGQRVTISCSGSRSNIGSNTVNWYQQLPGTAPKLLIYGNNQRPSGVPDRFSGSKSGTSASLAISGLQSEDEADYYCATWDDSLIGWVFGGGTKLTVLGGSGGSEVQLVESGGGLVQPGGSLRLSCAASGFTFSTYAMNWVRQAPGKGLEWVGRIRSKYNNYATYYADSVKDRFTISRDDSKNSLYLQMNSLKTEDTAVYYCARHGNFGNSYVSWFAYWGQGTLVTVSS
B3: CD33/CD3 tandem diabody 09 (bispecific antibody)
chain: DIQMTQSPSSLSASVGDRVTITCRSSTGAVTTSNYANWVQQKPGKAPKGLIGGTNKRAPGVPSRFSGSLIGDKATLTISSLQPEDFATYYCALWYSNLWVFGQGTKVEIKGGSGGSQVQLVQSGAEVKKPGASVKVSCKASGYTFTSYDINWVRQAPGQGLEWMGWMNPNSGNTGFAQKFQGRVTMTRDTSTSTVYMELSSLRSEDTAVYYCARDRANTDFSYGMDVWGQGTLVTVSSGGSGQSVLTQPPSASGTPGQRVTISCSGSRSNIGSNTVNWYQQLPGTAPKLLIYGNNQRPSGVPDRFSGSKSGSSASLAISGLQSEDEADYYCATWDDSLIGWVFGGGTKLTVLGGSGGSEVQLVESGGGLVQPGGSLRLSCAASGFTFSTYAMNWVRQAPGKGLEWVGRIRSKYNNYATYYADSVKDRFTISRDDSKNSLYLQMNSLKTEDTAVYYCARHGNFGNSYVSWFAYWGQGTLVTVSSAAAGSHHHHHH
B4: CD33/CD3 tandem diabody 11 (bispecific antibody)
chain: DIQMTQSPSSLSASVGDRVTITCRSSTGAVTTSNYANWVQQKPGKAPKGLIGGTNKRAPGVPSRFSGSLIGDKATLTISSLQPEDFATYYCALWYSNLWVFGQGTKVEIKGGSGGSQVQLVQSGAEVKKPGASVKVSCKASGYTFTSYDINWVRQAPGQGLEWMGWMNPNSGNTGFAQKFQGRVTMTRDTSTSTVYMELSSLRSEDTAVYYCARDRANTDYSLGMDVWGQGTLVTVSSGGSGQSVLTQPPSASGTPGQRVTISCSGSRSNIGSNTVNWYQQLPGTAPKLLIYGNNQRPSGVPDRFSGSKSGTSASLAISGLQSEDEADYYCATWDDSLIGWVFGGGTKLTVLGGSGGSEVQLVESGGGLVQPGGSLRLSCAASGFTFSTYAMNWVRQAPGKGLEWVGRIRSKYNNYATYYADSVKDRFTISRDDSKNSLYLQMNSLKTEDTAVYYCARHGNFGNSYVSWFAYWGQGTLVTVSSAAAGSHHHHHH
B5: CD33/CD3 tandem diabody 15 (bispecific antibody)
chain: DIQMTQSPSSLSASVGDRVTITCRSSTGAVTTSNYANWVQQKPGKAPKALIGGTNKRAPGVPSRFSGSLIGDKATLTISSLQPEDFATYYCALWYSNLWVFGQGTKVEIKGGSGGSQVQLVQSGAEVKKPGASVKVSCKASGYTFTSYDINWVRQAPGQGLEWMGWMNPNSGNTGFAQKFQGRVTMTRDTSTSTVYMELSSLRSEDTAVYYCARDRANTDYSFGMDVWGQGTLVTVSSGGSGQSVLTQPPSASGTPGQRVTISCSGSRSNIGSNTVNWYQQLPGTAPKLLIYGNNQRPSGVPDRFSGSKSGTSASLAISGLQSEDEADYYCATWDDSLIGWVFGGGTKLTVLGGSGGSEVQLVESGGGLVQPGGSLRLSCAASGFTFSTYAMNWVRQAPGKGLEWVGRIRSKYNNYATYYADSVKDRFTISRDDSKNSLYLQMNSLKTEDTAVYYCARHGNFGNSYVSYFAYWGQGTLVTVSSAAAGSHHHHHH
B6: CD33/CD3 tandem diabody 16 (bispecific antibody)
chain: DIQMTQSPSSLSASVGDRVTITCRSSTGAVTTSNYANWVQQKPGKAPKALIGGTNKRAPGVPSRFSGSLIGDKATLTISSLQPEDFATYYCALWYSNLWVFGQGTKVEIKGGSGGSQVQLVQSGAEVKKPGASVKVSCKASGYTFTSYDINWVRQAPGQGLEWMGWMNPNSGNTGFAQKFQGRVTMTRDTSTSTVYMELSSLRSEDTAVYYCARDRANTDYSLGMDVWGQGTLVTVSSGGSGQSVLTQPPSASGTPGQRVTISCSGSRSNIGSNTVNWYQQLPGTAPKLLIYGNNQRPSGVPDRFSGSKSGTSASLAISGLQSEDEADYYCATWDDSLIGWVFGGGTKLTVLGGSGGSEVQLVESGGGLVQPGGSLRLSCAASGFTFSTYAMNWVRQAPGKGLEWVGRIRSKYNNYATYYADSVKDRFTISRDDSKNSLYLQMNSLKTEDTAVYYCARHGNFGNSYVSYFAYWGQGTLVTVSSAAAGSHHHHHH
B7: CD33/CD3 tandem diabody 10 (bispecific antibody)
chain: DIQMTQSPSSLSASVGDRVTITCRSSTGAVTTSNYANWVQQKPGKAPKGLIGGTNKRAPGVPSRFSGSLIGDKATLTISSLQPEDFATYYCALWYSNLWVFGQGTKVEIKGGSGGSQVQLVQSGAEVKKPGASVKVSCKASGYTFTSYDINWVRQAPGQGLEWMGWMNPNSGNTGFAQKFQGRVTMTRDTSTSTVYMELSSLRSEDTAVYYCARDRANTDYSFGMDVWGQGTLVTVSSGGSGQSVLTQPPSASGTPGQRVTISCSGSRSNIGSNTVNWYQQLPGTAPKLLIYGNNQRPSGVPDRFSGSKSGTSASLAISGLQSEDEADYYCATWDDSLIGWVFGGGTKLTVLGGSGGSEVQLVESGGGLVQPGGSLRLSCAASGFTFSTYAMNWVRQAPGKGLEWVGRIRSKYNNYATYYADSVKDRFTISRDDSKNSLYLQMNSLKTEDTAVYYCARHGNFGNSYVSWFAYWGQGTLVTVSSAAAGSHHHHHH
B8: CD33/CD3 tandem diabody 12 (bispecific antibody)
chain: DIQMTQSPSSLSASVGDRVTITCRSSTGAVTTSNYANWVQQKPGKAPKALIGGTNKRAPGVPSRFSGSLIGDKATLTISSLQPEDFATYYCALWYSNLWVFGQGTKVEIKGGSGGSQVQLVQSGAEVKKPGASVKVSCKASGYTFTSYDINWVRQAPGQGLEWMGWMNPNSGNTGFAQKFQGRVTMTRDTSTSTVYMELSSLRSEDTAVYYCARDRAVTDYYYGMDVWGQGTLVTVSSGGSGQSVLTQPPSASGTPGQRVTISCSGSRSNIGSNTVNWYQQLPGTAPKLLIYGNNQRPSGVPDRFSGSKSGTSASLAISGLQSEDEADYYCATWDDSLIGWVFGGGTKLTVLGGSGGSEVQLVESGGGLVQPGGSLRLSCAASGFTFSTYAMNWVRQAPGKGLEWVGRIRSKYNNYATYYADSVKDRFTISRDDSKNSLYLQMNSLKTEDTAVYYCARHGNFGNSYVSYFAYWGQGTLVTVSSAAAGSHHHHHH
B9: CD33/CD3 tandem diabody 14 (bispecific antibody)
chain: DIQMTQSPSSLSASVGDRVTITCRSSTGAVTTSNYANWVQQKPGKAPKALIGGTNKRAPGVPSRFSGSLIGDKATLTISSLQPEDFATYYCALWYSNLWVFGQGTKVEIKGGSGGSQVQLVQSGAEVKKPGASVKVSCKASGYTFTSYDINWVRQAPGQGLEWMGWMNPNSGNTGFAQKFQGRVTMTRDTSTSTVYMELSSLRSEDTAVYYCARDRANTDFSYGMDVWGQGTLVTVSSGGSGQSVLTQPPSASGTPGQRVTISCSGSRSNIGSNTVNWYQQLPGTAPKLLIYGNNQRPSGVPDRFSGSKSGSSASLAISGLQSEDEADYYCATWDDSLIGWVFGGGTKLTVLGGSGGSEVQLVESGGGLVQPGGSLRLSCAASGFTFSTYAMNWVRQAPGKGLEWVGRIRSKYNNYATYYADSVKDRFTISRDDSKNSLYLQMNSLKTEDTAVYYCARHGNFGNSYVSYFAYWGQGTLVTVSSAAAGSHHHHHH
B10: CD33/CD3 tandem diabody 01 (bispecific antibody)
chain: DIQMTQSPSSLSASVGDRVTITCRSSTGAVTTSNYANWVQQKPGKAPKGLIGGTNKRAPGVPARFSGSGSGTDFTLTISSLQPEDFATYYCALWYSNLWVFGQGTKVEIKGGSGGSQVQLVQSGAEVKKPGASVKVSCKASGYTFTSYDINWVRQAPGQGLEWMGWMNPNSGNTGFAQKFQGRVTMTRDTSTSTVYMELSSLRSEDTAVYYCARDRANTDFSYGMDVWGQGTLVTVSSGGSGQSVLTQPPSASGTPGQRVTISCSGSRSNIGSNTVNWYQQLPGTAPKLLIYGNNQRPSGVPDRFSGSKSGSSASLAISGLQSEDEADYYCATWDDSLIGWVFGGGTKLTVLGGSGGSEVQLVESGGGLVQPGGSLRLSCAASGFTFSTYAMNWVRQAPGKGLEWVGRIRSKYNNYATYYADSVKDRFTISRDDSKNSLYLQMNSLKTEDTAVYYCARHGNFGNSYVSWFAYWGQGTLVTVSSAAAGSHHHHHH
B11: CD33/CD3 tandem diabody 18 (bispecific antibody)
chain: EVQLVESGGGLVQPGGSLRLSCAASGFTFSTYAMNWVRQAPGKGLEWVGRIRSKYNNYATYYADSVKDRFTISRDDSKNSLYLQMNSLKTEDTAVYYCARHGNFGNSYVSYFAYWGQGTLVTVSSGGSGGSQSVLTQPPSVSGAPGQRVTISCTGSSSNIGAGYDVHWYQQLPGTAPKLLIYGNSNRPSGVPDRFSGSKSGTSASLAITGLQAEDEADYYCQSYDSSLSDVVFGGGTKLTVLGGSGQVQLVQSGAEVKKPGESLKISCKGSGYSFTSYWIGWVRQMPGKGLEWMGIIYPGDSDTRYSPSFQGQVTISADKSISTAYLQWSSLKASDTAMYYCARHKRGSDAFDIWGQGTTVTVSSGGSGGSDIQMTQSPSSLSASVGDRVTITCRSSTGAVTTSNYANWVQQKPGKAPKALIGGTNKRAPGVPSRFSGSLIGDKATLTISSLQPEDFATYYCALWYSNLWVFGQGTKVEIKAAAGSHHHHHH

molecular target: cynomolgus CD33 (cynomolgus); test: flow cytometry KDs on CHO cells, cyno CD33 / human CD33

First: B1
Second: B2
The KD ratio CynoCD33/huCD33 of the first is higher: 1.9 for the first, 1.6 for the second.

First: B3
Second: B4
The KD ratio CynoCD33/huCD33 of the first is lower: 1 for the first, 1.2 for the second.

Compared with B5, B6 is higher in KD ratio CynoCD33/huCD33: 1.1 for the first, 1.4 for the second.

Going from B7 to B8, the KD ratio CynoCD33/huCD33 rises from 0.8 to 1.7.

First: B9
Second: B10
The KD ratio CynoCD33/huCD33 of the first is higher: 1 for the first, 0.7 for the second.

With B11 the KD ratio CynoCD33/huCD33 was 3.1.
